Test results from the DeepSol protein solubility set.

Assay: soluble on expression in E. coli; label from the status in PepcDB or PDB records

Sequence	soluble on expression in E. coli
MPVKIPDHLPAAGILESENIFVMSETRAANQDIRPMKVLILNLMPNKIETETQLLRLLGNTPLQVDVDLLRIHDKESKHTSIDHMNTFYRDFEDVRHKNYDGLIITGAPLGQIDFEDVTYWDHIREIIDWSQQHVTSVLFLCWAAHAGLYHLYGLNRKILEQKRSGVFVHRRTCQHFPLLRGFDDEFFAPHSRFAEMDVEEIRQHPQLQLLAESDEAGAYLVLSRNNRNLFVMGHPEYQKSTLNDEYHRDLAQSLNPNVPQNYYRNDDPKADAIARWHSHGSLLVSNWLNYYVYQLTPYDLSDMTAMTPWESQMAGDPLEHHHHHH	soluble
MEVPVHPLSQDPTAAWREISKTQRVIKVTMKPPTTTVAPNKARVVCMSDTHSLTPYIKFDIPDGDIFIHAGDFTKCGQLEEVEEFNTWIGALPHRHKIVIAGNHELSFDRTFTHPFQKSKSHASSSKHTGMSILDDLPTLGNAKENLESAVQTQNVRDVLTNCRYLEDELLEIWGIQIYGSPWQPEFCRWAFNVPRGTACLDKWNQIPEGIDILVTHTPPVGHGDLCCSGVRAGCVELLSTVQQRVRPKYHVFGHVHEGYGITSDGRIIFVNASTCDINYLPNNAPIVFDVTLPPGFRKDLEHHHHHH	soluble
HGTELPSPPSVWFEAEFFHHILHWTPIPQQSESTCYEVALLRYGIESWNSISQCSQTLSYDLTAVTLDLYHSNGYRARVRAVDGSRHSQWTVTNTRFSVDEVTLTVGSVNLEIHNGFILGKIQLPRPKMAPAQDTYESIFSHFREYEIAIRKVPGQFTFTHKKVKHEQFSLLTSGEVGEFCVQVKPSVASRSNKGMWSKEECISLTRQYFTVTN	soluble
MDGKLLWSFNSGDAVRSVAISRDGDYVATGSANNYVYLLDSEGKTLWGKKTGSLINSVTMTPNAYYVAAGGSNYNVYLFDRKGEFSWMHNPGYWVSSVSLSSNGSHLAAGSFDDRIYLFNLTGAKLWDYQVKDDVYAVEIAPDSSFIAAGSWDDSIYALNMSGKELEHHHHHH	not soluble
MKNNQNSNIHLLRSAKHAEPVMLDIKQLVKTYDNGHQAVKGVDLSIHQGEFIVLVGPSGCGKSSILRSIAGLESITSGEIHLAGRRVDNEKPANRDIAMVFQNYALYPHMSVYDNLAYGLKNRGVDKQTIAAKIAKVAKTLKIEEYLDRKPAKLSGGQRQRVAMGRAIVRDPQLFLFDEPLSNLDAALRAHMRLEIKKLQRELGVTSVYVTHDQVEAMTLADRIVVVKQGEIEQVGTPAEVYHQPASTFVASFIGSPAMNFLPASIKQGQLHIAGKHCYLPQFDAMSSENITLGIRPEHASLHPLTNAIELKLDIQVVEPLGPNQLVHGKIIGLESEQDFIAVTAEIPLDVHQTLPIWVALEQLHLFDQQGKRFVQSHRSCTQSSKVASTRQQ	not soluble
MSLNRFRKWLYKPKRSDPQLLARFYYADEELNQVAAELDSLDGRKDPQRCTLLVSQFRSCQDNVLNIINQIMDECIPQDRAPRDFCVKFPEEIRHDNLAGQLWFGAECLAAGSIIMNRELESMAMRPLAKELTRSLEDVRGALRDQALRDLNTYTEKMREALRHFDVLFAEFELSYVSAMVPVKSPREYYVQQEVIVLFCETVERALDFGYLTQDMIDDYEPALMFSIPRLAIVCGLVVYADGPLNLDRKVEDMSELFRPFHTLLRKIRDLLQTLTEEELHTLERNLCISQDVEFPIRADEGHHHHHH	not soluble
MAPFSPASSDVLVIGGGPSGTALSAELAARGLDVQQLAPHPPRPFPATYGAWLGDLPTWARGCAEQVWTDVRAYTGPQPTSLGQPYALLDNAALLRTLRGLADWTWVEGAALHAERSGAGWTVYGAGGERWQTRLVVDASGHGALVSPVRFPGGAALQTAYGVVARFRRPPVTPGSMVWMDYRTPAPELKRGEATFLYAMHLGGDRYFVEETSLIARPAPTRAELRRRLLARLSAQGTPPHATESEEWVAFPMNAQAPAPGGVLAYGAAAGRVHPVSGFQVAGALSDAPGVATAIATALCQGKDAAAAGWAALWSPERRAAREVHLLGVGALLGLERAELPHFFGTFFGLPREQWARFLHPDTDAGTLARTMLRVFAQTGGRVRLPLARAALAQPAASGRALAAAAGLKILEHHHHHH	not soluble
MGSDKIHHHHHHMTNVGRPIETHAITVGQGSDARSIAALVRAPAQDERPTCIWLGGYRSDMTGTKALEMDDLAASLGVGAIRFDYSGHGASGGAFRDGTISRWLEEALAVLDHFKPEKAILVGSSMGGWIALRLIQELKARHDNPTQVSGMVLIAPAPDFTSDLIEPLLGDRERAELAENGYFEEVSEYSPEPNIFTRALMEDGRANRVMAGMIDTGCPVHILQGMADPDVPYQHALKLVEHLPADDVVLTLVRDGDHRLSRPQDIDRMRNAIRAMIEPRP	not soluble
MGSDKIHHHHHHMANFKVGCGKAMIQFSASELPIREFKSKLDDLYCRVMLISGKNSWALISFDLTSLRAAAIKRYQELAARLLAIDSNQIWVTVTHTFAAPHLPSTTDSMARKSAYRLIDEKLKESLMLACRQAHEDLQAVQVGQVNINCPLNVNRNVLTKQGWWLGRNLEGYSNHQLRVLAFRKADKTTNLLVNYDIQQSVLDHVTDDHGEQMISSDLMGNGIKAYEGNDRVAIFIPGCAGDQRPLFTGKANQPFAVNKALLANQATIVTEKLEWAVQNVHDWQPLRQLRSSQLPVIVPTQVQQRSTFEIKPTKTYDFQSTKQTTTLHLWALRLNQYEIVGTEPELNSSFGDSCRQALAGNTNTMIATLVNGAAKYLPEQIDFERITYQSMNTQLGLTADQCMLEACVQLRQKISEEEY	not soluble
GHFAPQQMKEAIEIYKTLFEPSDVLDEPYVIVCLNTIVAENDDEAQYLASSMAQVMVSITRGRMQPVQPPTHDLQNILTPREYAMAMERQKISLIGSENTVQQKIQDFMETYGEVNEIMAISYIYDKDMQLDSYRRFKN	not soluble
MKPNIHPEYRTVVFHDTSVDEYFKIGSTIKTDREIELDGVTYPYVTIDVSSKSHPFYTGKLRTVASEGNVARFTQRFGRFVSTKKGA	soluble
MKGDRLADIRTIGVVVLYRPDSSVLDAIASYRHQVHELIVVDNSEEQDHKLHSRLRDRFGATIVGEGRNLGIAAALNRAAREALAEGFDLLLTMDQDSRAEPGMVEQMLACLGSDWRERVGLIAPFHLTGARPAPGGTTPCSDVMTPMTSGCLVNLAAFREVGPFRDDFFIDFVDNEYCLRLRKKGFQVVRANRALLHHRVGDLRRYGPFVATHHSPLRRYYKTRNRCAVFAEYLRDFPVHCLFDLVRLGKEVASILIFEREKTAKLRMMWRGFLDFRRGRFGPYGGLEHHHHHH	not soluble
SVLPETPVPFKSGTGAIDNDTVYIGLGSAGTAWYKLDTQAKDKKWTALAAFPGGPRDQATSAFIDGNLYVFGGIGKNSEGLTQVFNDVHKYNPKTNSWVKLMSHAPMGMAGHVTFVHNGKAYVTGGVNQNIFNGYFEDLNEAGKDSTAIDKINAHYFDKKAEDYFFNKFLLSFDPSTQQWSYAGESPWYGTAGAAVVNKGDKTWLINGEAKPGLRTDAVFELDFTGNNLKWNKLAPVSSPDGVAGGFAGISNDSLIFAGGAGFKGSRENYQNGKNYAHEGLKKSYSTDIHLWHNGKWDKSGELSQGRAYGVSLPWNNSLLIIGGETAGGKAVTDSVLITVKDNKVTVQNLEHHHHHH	soluble
KLLEHVRNILPPNITCLYIRQAEALGLGHAVLCARAAIGDEPFAVILADDLIDAPKGALKQMVEVYGRSGNSILGVETVEASQTGSYGIVETEQLKQFQRITGIVEKPKPEDAPSNLAVVGRYILTPRIFDLLTNLPRGAGNEIQLTDGIAKLLDHEFVLAHPFEGTRYDCGSKLGYLEATVAYGLKHPETGEPFRRLLEKYRTE	not soluble
GSGYVFGGFIRADIKKWYIQPNIYYMYNSSSIDVNQTSTDVKSKSVNGDVLLGYRFFKFTDLTYLRLFAGPGYSNINTLKYDSCTSDYSTDNILLNAGVGLDFWKLTFDLKYQRGLTDIDKSSNTMHTSLFMLTAGFKIL	not soluble
MKSKLKLHGFNNLTKTLSFNIYDICYAETPQDQQAYVEYINSVYDAERLTRILTDVVDIIGANILNIARQDYDPQGASVTILISEQPVTPTESQIEESPGPLPETILAHLDKSHITVHTYPEIHPVDGIATFRVDIDVSTCGVISPLKALNYLIHKFESDIVTVDYRVRGFTRDVEGKKHFIDHEINSIQNYLSEDTRNGYQMTDVNVYQENLFHTKMLLKQFELDNYLFGDATSNLSAEQREQVTAKVKHEMLEIFYGRNVAV	not soluble
MGSDKIHHHHHHMDNVPEPSSEKFRAYRQKLLDQLETSSQGERHRAQYELELMRNSHFVKVGGLLHHYHDSGPENPRGTVLLIHGWDCWWMWWHRIIRELNAAGYRTVAYDMKGHGWSENDPENRYQIADFVRDLDELIRAIGLKDLHIAAFSFGPFVALDYVNTYPNSVRSMVFFNFGYLPNSEFISKVAPATIIFIFNIMMRKLTWWLPAYIFARLVLSRNSVMMHDIKVGFESLGFCASEAIEQTAQQITAMETTQMLPDMVRAVRVPILFAAGEGDVIMTCENARKLQEMTPSGSYLCVPDCGHLITLELPQTAAEIVLQHISSNS	not soluble
MGSDKIHHHHHHMLHRRKTYTIRPERLQEFTEFFHTYLYPLQISHGARLVGRWVNEAEDEVIAIWEYRDREHYEQVDRDVRGSTLRREAMKKRARLGKNLYIKSTEDFLTATGVYAPPRAIVSVTAYITNEAGEVLLVRNLHRGDTYEMPGGQVENHESILDAVKREVKEETGADVTIEGITGIYQNVSSHVLCVAFRGTYTGGELRPQEGETAEVGFFDLNRENIDTYIKREHFQLRTLDAMDPHYFPHALYKVRPYELISRYDGNAPSALSGQN	not soluble
MSPTGNYLNAITNRRTIYNLKPELPQGVGLDDVKRTVHVILKNTPTAFNSQVNRAVIIVGDTHKRIWDAVASAMPTAEAKKRPESCRDEAYGSVIFFTDEGPTEKLQRDFPALAAAFPTCAAHTTGAVQIQSWTALELLGLGANLQHYNDYVKSALPQDVPIAWTVQSQLVFGVPTALPEEKTFINNVINVYH	soluble
MGSDKIHHHHHHMTERTLRGQVAVVGVGESEYYRAGHAPDPEFRLLLKAVLAACRDADIDPADIDGFASFADDRNDAVRIATALGVKRLRSTTMQWGGGGGGCAAAVANGAAAIMSGMAQCVLVYRGLAQGQFGRFGQAAPRASISGEMAYQMPYGVLAPPQKFAMKVQRFMHEHGVRREALRAIALASYQHAQANPRAVMHGKPLTAEAYDASRWIVEPFRLFDCCMENDGAGALLLVAAERAKDFPHRPVYLLGAASGGDWRAAASPHNAPHYASANYSGVSGDLYRMARVSPADVGVVQSYENFTGGVAMALSEHGFFHPDEANDFLTPENLVAPSGKLPLNTSGGNLGECYVHGFELVIEAARQVRGESTSQAARHDVALVIGGPMVTPASSLLFGSAATL	not soluble
MSLDVCRGMLCGFGAVCEPSVEDPGRASCVCKKNVCPAMVAPVCGSDASTYSNECELQRAQCNQQRRIRLLRQGPCGSRDPCANVTCSFGSTCVPSADGQTASCLCPTTCFGAPDGTVCGSDGVDYPSECQLLRHACANQEHIFKKFDGPCDPCQGSMSDLNHICRVNPRTRHPEMLLRPENCPAQHTPICGDDGVTYENDCVMSRIGAARGLLLQKVRSGQCQTRDQCPETCQFNSVCLSRRGRPHCSCDRVTCDGAYRPVCAQDGHTYDNDCWRQQAECRQQQTIPPKHQGPCDQTPSPCRGAQCAFGATCTVKNGKAVCECQRVCSGGYDPVCGSDGVTYGSVCELESMACTLGREIRVARRGPCDRCGQCRFGSLCEVETGRCVCPSECVESAQPVCGSDGHTYASECELHVHACTHQISLYVASAGHCQTCGETVCTFEGHHHHHH	not soluble
MKSMEIDVEHIFDCLDRYGKGELTEKQLTKGVTDDEKMFLIMHQGLLGGNTDSEEEFNVLDWLGEEESFFMIVEINENLCRKAESILEEIGVEMPDVIESFLKQLVETKQLPVVVND	not soluble
